Experimental data reported in paper PMC9798703.
Where two headings read alike, the source gives them in different places.

Assays:
Assay in all cases: fluorescence anisotropy
ERα DBD-Ext [1] = molecular target: T1, ERα DBD-Ext (Homo sapiens, UniProt P03372)
ERα DBD-Ext [2] = molecular target: T1, ERα DBD-Ext; remark: listed apart in the source
ERα DBD-Ext [3] = molecular target: T1, ERα DBD-Ext; remark: listed apart in the source
ERα DBD-Ext [4] = molecular target: T1, ERα DBD-Ext; remark: listed apart in the source

Row | Binder | Kd (ERα DBD-Ext [1]) [nM] | binding result (ERα DBD-Ext [3]) | further results
1 | CAGGUCAGAGUGACCUGAUUCGUCAGGUCACUCUGACCUG (structured_RNA) [rERE] | 130 ± 20 |  | 
2 | AUACAACAUACAACAUACAACAUACAACAUACAAC (ssRNA) [ssRNA (env8)] |  |  | Kd (ERα DBD-Ext [2]): ~1100 nM
3 | GGGAUCUGCCUGCAUCCUGACGCGGUGCCGUCCC (structured_RNA) [TFF1] |  | binds | 
4 | rERE duplex (dsRNA) RNA 1: CAGGUCAGAGUGACCUGAUU RNA 2: AAUCAGGUCACUCUGACCUG | 1100 |  | 
5 | GREB1 (structured_RNA) RNA: GGGAUGCCGAAGAGUUGAUGUCAAUCUUUUUUUCCUAAGAAAAAAAGUCCGCGAGUAUUCC |  | binds | 
6 | UCAGGUCACUCUGACCUGGCUUCAGGUCAGAGUGACCUGA (structured_RNA) [rERE loop rescue] |  |  | binding result (ERα DBD-Ext [4]): binds
